The results in this text go back to patent publication US20100260717, “METHODS OF […] A […] FAMILY VIRAL INFECTION, COMPOSITIONS FOR […] A […] FAMILY VIRAL INFECTION, AND […] ASSAYS FOR […] COMPOSITIONS FOR […] A […] FAMILY VIRAL INFECTION” (published 2010).

In this series the target is HuR (ELAVL1) (Homo sapiens, UniProt Q15717 Q15717:1-326). Description: MITOMI; not inhibited by clemizole 0.1 mM, inhibited by ATA. Conditions: tags: C-terminal V5-6xHis; bodipy-Lys labelled; wheat germ extract; ORFeome clone (Open Biosystems); label: Cy3.
HuR (ELAVL1), sequence (Q15717 whole entry, one chain of several): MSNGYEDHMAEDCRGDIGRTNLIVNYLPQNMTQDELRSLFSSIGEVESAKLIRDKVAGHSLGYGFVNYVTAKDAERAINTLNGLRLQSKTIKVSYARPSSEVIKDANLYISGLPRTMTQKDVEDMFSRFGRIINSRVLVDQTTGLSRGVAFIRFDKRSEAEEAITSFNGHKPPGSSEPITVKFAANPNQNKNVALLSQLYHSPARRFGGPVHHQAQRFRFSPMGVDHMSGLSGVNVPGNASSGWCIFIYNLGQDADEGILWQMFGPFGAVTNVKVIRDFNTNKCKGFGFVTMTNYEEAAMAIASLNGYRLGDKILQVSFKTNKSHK

Protocol: Binding of HuR to the consensus 4A RNA sequence was tested in the presence of the inhibitory molecules shown to inhibit RNA binding by NS4B.

On to AUUUAUUUAUUUAUUUA (ssRNA) [4A], for which the binding result was “binds”.
